Assay results published in patent publication US20030148958A1 (PROCTER AND GAMBLE, published 2003).
Ends that are not written are not given here.

Experiments:
[1] = molecular target: T1, corticotropin releasing factor 2 receptor; test: cell-based or functional assay
T1 sequence (Q13324 whole entry, species assumed, looked up): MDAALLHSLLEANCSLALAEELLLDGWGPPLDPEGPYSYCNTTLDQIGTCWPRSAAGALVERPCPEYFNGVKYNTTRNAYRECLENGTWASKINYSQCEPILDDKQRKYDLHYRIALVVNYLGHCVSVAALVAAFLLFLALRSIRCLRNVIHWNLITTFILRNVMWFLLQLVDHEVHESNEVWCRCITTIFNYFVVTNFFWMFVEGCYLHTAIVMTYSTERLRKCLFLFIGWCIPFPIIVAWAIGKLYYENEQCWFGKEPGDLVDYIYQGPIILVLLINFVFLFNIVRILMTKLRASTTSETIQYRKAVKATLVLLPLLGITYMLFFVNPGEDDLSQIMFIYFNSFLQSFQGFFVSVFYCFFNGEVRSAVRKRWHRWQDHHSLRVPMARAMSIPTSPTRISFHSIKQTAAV

[2] = molecular target: corticotropin releasing factor 1 receptor; test: cell-based or functional assay
Throughout, for CRF1R Emax: reference of the scale not given here.
Throughout, for CRF2R Emax: reference of the scale not given here.

Binder | CRF2R EC50 [1] [nM] | CRF2R Emax [1] [%] | CRF1R EC50 [2] [nM] | CRF1R Emax [2] [%]
SQEPPISLDLPFQLLREVLEMTKADQLAQQAHSNRKLLDIA-NH2 [SEQ ID NO 91] | 100 | 7.1 | 100 | 4
SQEPPISLDLTIGLLREVLEMTKADQLAQQAHSNRKLLDIA-NH2 [SEQ ID NO 86] | 100 | 8.1 | 100 | 4.6
ZGPPISIDLPIYLLRKMIEIEKQEKEKQQAANNRLLLDTI (C-terminal amide) [SEQ ID NO 79] | 22.3 | 100 | > 100 | 8
ZGPPISIDLPLELLRKMIEIEKQEKEKQQAANNRLLLDTI (C-terminal amide) [SEQ ID NO 82] | 10.9 | 90 | 96.2 | 85
ZGPPISIDLPLHLLRKMIEIEKQEKEKQQAANNRLLLDTI (C-terminal amide) [SEQ ID NO 83] | 1.91 | 81 | 52.2 | 96
ZGPPISIDLPFYLLRKMIEIEKQEKEKQQAANNRLLLDTI (C-terminal amide) [SEQ ID NO 85] | 2.34 | 100 | 11 | 84
ZGPPISIDLPLQLLRKMIEIEKQEKEKQQAANNRLLLDTI (C-terminal amide) [SEQ ID NO 80] | 6.53 | 88 | > 100 | 55
ZGPPISIDLPFQLLRKMIEIEKQEKEKQQAANNRLLLDTI (C-terminal amide) [SEQ ID NO 84] | 1.77 | 100 | 82.2 | 99
SQEPPISLDLTIHLLREVLEMTKADQLAQQAHSNRKLLDIA-NH2 [SEQ ID NO 87] | 100 | 14.7 | 100 | 5.3
SQEPPISLDLPLGLLREVLEMTKADQLAQQAHSNRKLLDIA-NH2 [SEQ ID NO 90] | 100 | 12.2 | 100 | 4
SQEPPISLDLTFGLLREVLEMTKADQLAQQAHSNRKLLDIA-NH2 [SEQ ID NO 88] | 100 | 12.6 | 100 | 11.2
ZGPPISIDLPLYLLRKMIEIEKQEKEKQQAANNRLLLDT (C-terminal amide) [SEQ ID NO 81] | 4.3 | 73 | 60.9 | 81
IVLSLDVPGPLLQILLEQTKQEAAREQATTNARILARV-NH2 [SEQ ID NO 5] | 100 | 12 | 100 | 9
